Source: the supplement of paper PMC10724198
± gives the standard deviation of the averaged measurements.

Columns and labels:
[1] = tested on: Saccharomyces cerevisiae; test: protein stability index of tFT-peptide fusion (C-terminal peptide) (PSI (0-1 scale)); higher = more stable (slower turnover)
Protocol: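 MPS profiling in S. cerevisiae of the tFT-X12 degron library: putative degron peptides plus stable controls, 12 aa, fused to the C-terminus of a sfGFP-mCherry timer. Cells are FACS-sorted into 8 mCherry/sfGFP bins and deep-sequenced. PSI runs from 0 (unstable) to 1 (stable). Backgrounds are wild type, das1Δ and doa10Δ at 30 °C, and wild type, das1Δ, cdc34-1 and cdc53-1 at 37 °C; 2-3 technical replicates each.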

[2] = tested on: Saccharomyces cerevisiae; test: as above; conditions: genetic background: wild type; temperature: 30 C
[3] = genetic background: cdc34-1, temperature: 37 C
[4] = genetic background: cdc53-1, temperature: 37 C
[5] = genetic background: das1 deletion, temperature: 30 C
[6] = genetic background: das1 deletion, temperature: 37 C
[7] = genetic background: doa10 deletion, temperature: 30 C
[8] = genetic background: wild type, temperature: 30 C
[9] = genetic background: wild type, temperature: 37 C
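Further: PSI is a weighted mean of sequencing reads over stability bins, variants kept only with over 10 reads, mCherry proximal and sfGFP distal, peptide attached via GGGS linker.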

SCFRFFFLFLFF
protein stability index [1, 3]: 0.192 ± 0.011 | protein stability index [1, 4]: 0.197 ± 0.0042 | protein stability index [1, 5]: 0.282 ± 0.024 | protein stability index [1, 6]: 0.361 ± 0.016 | protein stability index [1, 7]: 0.4322 ± 0.00071 | protein stability index [1, 8]: 0.238 ± 0.043 | protein stability index [1, 9]: 0.312 ± 0.0097 | protein stability index [2]: 0.322 ± 0.052

INKRDARIHLLM
protein stability index [1, 3]: 0.658 ± 0.012 | protein stability index [1, 4]: 0.6975 ± 0.0064 | protein stability index [1, 5]: 0.623 ± 0.023 | protein stability index [1, 6]: 0.701 ± 0.00084 | protein stability index [1, 7]: 0.32 ± 0.034 | protein stability index [1, 8]: 0.382 ± 0.029 | protein stability index [1, 9]: 0.547 ± 0.0084 | protein stability index [2]: 0.47 ± 0.0047

ACGGGSNVHRAG
protein stability index [1, 3]: 0.665 ± 0.028 | protein stability index [1, 4]: 0.7248 ± 0.0067 | protein stability index [1, 5]: 0.657 ± 0.019 | protein stability index [1, 6]: 0.767 ± 0.021 | protein stability index [1, 7]: 0.662 ± 0.045 | protein stability index [1, 8]: 0.66 ± 0.018 | protein stability index [1, 9]: 0.75211 ± 0.00044 | protein stability index [2]: 0.747 ± 0.012

RKNIKISKAGIG
protein stability index [1, 3]: 0.283 ± 0.0034 | protein stability index [1, 4]: 0.394 ± 0.0056 | protein stability index [1, 5]: 0.343 ± 0.012 | protein stability index [1, 6]: 0.377 ± 0.012 | protein stability index [1, 7]: 0.31 ± 0.0041 | protein stability index [1, 8]: 0.287 ± 0.021 | protein stability index [1, 9]: 0.332 ± 0.0074 | protein stability index [2]: 0.279 ± 0.1

LSQPGWFKCCLS
protein stability index [1, 3]: 0.653 ± 0.014 | protein stability index [1, 4]: 0.737 ± 0.05 | protein stability index [1, 5]: 0.662 ± 0.029 | protein stability index [1, 6]: 0.7677 ± 0.00079 | protein stability index [1, 7]: 0.308 ± 0.023 | protein stability index [1, 8]: 0.326 ± 0.023 | protein stability index [1, 9]: 0.463 ± 0.029 | protein stability index [2]: 0.42 ± 0.013

SLICLSVGVLLR
protein stability index [1, 3]: 0.128 ± 0.024 | protein stability index [1, 4]: 0.181 ± 0.061 | protein stability index [1, 5]: 0.189 ± 0.029 | protein stability index [1, 6]: 0.337 ± 0.071 | protein stability index [1, 7]: 0.205 ± 0.003 | protein stability index [1, 8]: 0.188 ± 0.039 | protein stability index [1, 9]: 0.258 ± 0.021 | protein stability index [2]: 0.292 ± 0.0045

LWFLDYVFICFL
protein stability index [1, 3]: 0.335 ± 0.017 | protein stability index [1, 4]: 0.347 ± 0.025 | protein stability index [1, 5]: 0.33 ± 0.034 | protein stability index [1, 6]: 0.452 ± 0.012 | protein stability index [1, 7]: 0.3673 ± 0.0034 | protein stability index [1, 8]: 0.299 ± 0.018 | protein stability index [1, 9]: 0.399 ± 0.011 | protein stability index [2]: 0.382 ± 0.022

FILLHLLGTIRS
protein stability index [1, 3]: 0.433 ± 0.02 | protein stability index [1, 4]: 0.487 ± 0.0072 | protein stability index [1, 5]: 0.372 ± 0.031 | protein stability index [1, 6]: 0.502 ± 0.023 | protein stability index [1, 7]: 0.337 ± 0.016 | protein stability index [1, 8]: 0.352 ± 0.026 | protein stability index [1, 9]: 0.4948 ± 0.0018 | protein stability index [2]: 0.438 ± 0.016

LWLVSLLVLWLT
protein stability index [1, 3]: 0.332 ± 0.035 | protein stability index [1, 4]: 0.375 ± 0.033 | protein stability index [1, 5]: 0.291 ± 0.033 | protein stability index [1, 6]: 0.439 ± 0.011 | protein stability index [1, 7]: 0.239 ± 0.0059 | protein stability index [1, 8]: 0.256 ± 0.02 | protein stability index [1, 9]: 0.383 ± 0.013 | protein stability index [2]: 0.316 ± 0.018

IFPSRSLLAASA
protein stability index [1, 3]: 0.403 ± 0.013 | protein stability index [1, 4]: 0.457 ± 0.062 | protein stability index [1, 5]: 0.339 ± 0.033 | protein stability index [1, 6]: 0.5192 ± 0.0019 | protein stability index [1, 7]: 0.317 ± 0.016 | protein stability index [1, 8]: 0.339 ± 0.025 | protein stability index [1, 9]: 0.48 ± 0.028 | protein stability index [2]: 0.446 ± 0.0097

PPLTRVPLSISA
protein stability index [1, 3]: 0.434 ± 0.0084 | protein stability index [1, 4]: 0.465 ± 0.016 | protein stability index [1, 5]: 0.292 ± 0.04 | protein stability index [1, 6]: 0.492 ± 0.012 | protein stability index [1, 7]: 0.267 ± 0.0075 | protein stability index [1, 8]: 0.305 ± 0.034 | protein stability index [1, 9]: 0.46 ± 0.005 | protein stability index [2]: 0.413 ± 0.052

VWFFGVVLGGLW
protein stability index [1, 3]: 0.527 ± 0.071 | protein stability index [1, 4]: 0.554 ± 0.0091 | protein stability index [1, 5]: 0.423 ± 0.031 | protein stability index [1, 6]: 0.584 ± 0.014 | protein stability index [1, 7]: 0.4157 ± 0.00077 | protein stability index [1, 8]: 0.421 ± 0.018 | protein stability index [1, 9]: 0.561 ± 0.03 | protein stability index [2]: 0.4443 ± 0.0021

SRRCGLFVFILF
protein stability index [1, 3]: 0.387 ± 0.042 | protein stability index [1, 4]: 0.378 ± 0.028 | protein stability index [1, 5]: 0.324 ± 0.041 | protein stability index [1, 6]: 0.49 ± 0.021 | protein stability index [1, 7]: 0.365 ± 0.008 | protein stability index [1, 8]: 0.277 ± 0.03 | protein stability index [1, 9]: 0.471 ± 0.006 | protein stability index [2]: 0.392 ± 0.03

GGYIINRWRTKN
protein stability index [1, 3]: 0.566 ± 0.035 | protein stability index [1, 4]: 0.709 ± 0.022 | protein stability index [1, 5]: 0.622 ± 0.016 | protein stability index [1, 6]: 0.724 ± 0.052 | protein stability index [1, 7]: 0.113 ± 0.026 | protein stability index [1, 8]: 0.142 ± 0.021 | protein stability index [1, 9]: 0.273 ± 0.011 | protein stability index [2]: 0.27 ± 0.052

IKSLLGCWHKHY
protein stability index [1, 3]: 0.679 ± 0.017 | protein stability index [1, 4]: 0.732 ± 0.0077 | protein stability index [1, 5]: 0.647 ± 0.031 | protein stability index [1, 6]: 0.7145 ± 0.0066 | protein stability index [1, 7]: 0.279 ± 0.028 | protein stability index [1, 8]: 0.303 ± 0.057 | protein stability index [1, 9]: 0.574 ± 0.04 | protein stability index [2]: 0.479 ± 0.018

VGDVVWFGVGAG
protein stability index [1, 3]: 0.733 ± 0.033 | protein stability index [1, 4]: 0.7757 ± 0.0042 | protein stability index [1, 5]: 0.662 ± 0.0049 | protein stability index [1, 6]: 0.782 ± 0.0084 | protein stability index [1, 7]: 0.662 ± 0.022 | protein stability index [1, 8]: 0.6566 ± 0.005 | protein stability index [1, 9]: 0.7438 ± 0.0022 | protein stability index [2]: 0.761 ± 0.023

FWWVGCGWCRWG
protein stability index [1, 3]: 0.619 ± 0.019 | protein stability index [1, 4]: 0.73 ± 0.023 | protein stability index [1, 5]: 0.602 ± 0.036 | protein stability index [1, 6]: 0.708 ± 0.011 | protein stability index [1, 7]: 0.2446 ± 0.0022 | protein stability index [1, 8]: 0.269 ± 0.025 | protein stability index [1, 9]: 0.4351 ± 0.00096 | protein stability index [2]: 0.378 ± 0.011

VPQMLVSVCLSN
protein stability index [1, 3]: 0.301 ± 0.014 | protein stability index [1, 4]: 0.376 ± 0.045 | protein stability index [1, 5]: 0.287 ± 0.032 | protein stability index [1, 6]: 0.423 ± 0.021 | protein stability index [1, 7]: 0.219 ± 0.014 | protein stability index [1, 8]: 0.26 ± 0.029 | protein stability index [1, 9]: 0.392 ± 0.033 | protein stability index [2]: 0.348 ± 0.011

PLRVFFLVAFCL
protein stability index [1, 3]: 0.451 ± 0.009 | protein stability index [1, 4]: 0.4799 ± 0.0037 | protein stability index [1, 5]: 0.372 ± 0.024 | protein stability index [1, 6]: 0.535 ± 0.015 | protein stability index [1, 7]: 0.318 ± 0.026 | protein stability index [1, 8]: 0.326 ± 0.05 | protein stability index [1, 9]: 0.471 ± 0.013 | protein stability index [2]: 0.383 ± 0.0073
